Assay results: patent US12460006B2, “Antibodies against integrin alpha 11 beta 1” (Momenta Pharmaceuticals, Inc., priority 2019, dated 2025)
Each block holds one molecule with its values, some of them ahead of it.

Legend:
[1] = test system: Human Pulmonary Fibroblasts; test: Fibroblast-to-Myofibroblasts Transition (FMT), αSMA expression; type: cell-based; settings: Yes/No
In short: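 Cells seeded at 20,000/well, serum-starved 24 h, then given TGFβ-1 with or without anti-α11 antibodies for 48 h; polyclonal anti-α11 and isotype IgG served as controls. Fixed, permeabilized cells were stained for αSMA and analysed by flow cytometry (single-cell gMFI). Values are normalized to untreated control as % inhibition.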

myofibroblasts (MF) = test: FACS antibody binding to myofibroblasts; parameters: species or system human; settings: binding Yes/No
In short: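 Human pulmonary fibroblasts, serum-starved 24 h then TGFβ-1-treated 72 h to give myofibroblasts, were blocked with heat-inactivated FBS and stained with anti-α11 antibodies, then PE secondary, 30 min each at 4 °C, before 1% PFA fixation. Binding read by flow cytometry as PE geometric MFI of single cells.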

[2] = test system: CHO-K1 cells expressing human α11; test: Cell adhesion inhibition (xCelligence), type I collagen; type: cell-based; settings: Yes/No
In short: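 CHO-K1 cells expressing human α11 (0.6×10^6 cells/mL) were preincubated with mAbs across a concentration range for 20 min at 37° C, then seeded on wells coated with 100 ng/mL type I collagen and blocked with 3% BSA. Impedance-based adhesion was recorded over 6 h, and maximum adhesion was compared with untreated control.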

[3] = test system: human pulmonary fibroblasts (HPFs); test: FACS antibody binding to human pulmonary fibroblasts; settings: binding Yes/No
I domain of α11β1 = target: T1, I domain of α11β1 (Homo sapiens, UniProt Q9UKX5); test: ELISA binding to in-house generated I domain of α11β1; settings: Yes/No
T1 construct: An in-house generated I domain of α11β1 was used; made in house
T1 sequence (Q9UKX5 164-345 limits assumed): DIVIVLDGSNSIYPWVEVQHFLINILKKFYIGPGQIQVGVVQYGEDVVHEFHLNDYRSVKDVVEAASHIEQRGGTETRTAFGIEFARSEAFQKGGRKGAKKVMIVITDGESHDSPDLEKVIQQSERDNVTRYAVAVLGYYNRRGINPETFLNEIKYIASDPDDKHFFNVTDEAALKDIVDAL
In short: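 Plate-coated antigen (0.25 μg/mL, overnight 4° C) probed with antibody dilution series 1 h at room temperature, then biotinylated anti-IgG and streptavidin-HRP, 1 h each. TMB substrate 5 min, stopped, absorbance at 450 nm; in-house I domain of α11β1 used as target.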

MF FACS (myofibroblasts (MF)): Yes
HPF FACS [3]: No
I Domain binding (I domain of α11β1): No
B1: 3B1: rabbit anti-α11β1 mAb; heavy chain SEQ ID NO: 201, light chain SEQ ID NO: 202 (antibody)
heavy: METGLRWLLLVAVLKGVQCQEQLEESGGGLVKPEGSLTLTCKASGFDLSSGYDMCWVRQAPGKGLEWIACIYADYSGSTYYASWVNGRFTISSSTSLNTVDLKMTSLTAADTATYFCARGATGNGGYGYYFNLWGPGTLVTVSSGQPKAPSVFPLAPCCGDTPSSTVTLGCLVKGYLPEPVTVTWNSGTLTNGVRTFPSVRQSSGLYSLSSVVSVTSSSQPVTCNVAHPATNTKVDKTVAPSTCSKPMCPPPELPGGPSVFIFPPKPKDTLMISRTPEVTCVVVDVSQDDPEVQFTWYINNEQVRTARPPLREQQFNSTIRVVSTLPIAHQDWLRGKEFKCKVHNKALPAPIEKTISKARGQPLEPKVYTMGPPREELSSRSVSLTCMINGFYPSDISVEWEKNGKAEDNYKTTPTVLDSDGSYFLYSKLSVPTSEWQRGDVFTCSVMHEALHNHYTQKSISRSPGK
light: MDTRAPTQLLGLLLLWLPGARCADIVMTQTPASVSEPVGGTVTIKCQASQNINSGLAWYQQKPGQPPKLLIYKASTLASGVSSRFKGSGSGTEFTLTISDLECADAATYYCQTYYYSSSSSDNAFGGGTEVVVKGDPVAPTVLIFPPAADQVATGTVTIVCVANKYFPDVTVTWEVDGTTQTTGIENSKTPQNSADCTYNLSSTLTLTSTQYNSHKEYTCKVTQGTTSVVQSFNRGDC
Inhibition of FMT [1]: No
Inhibition of CHO-K1 adhesion to collagen [2]: Yes

MF FACS (myofibroblasts (MF)): No
HPF FACS [3]: No
I Domain binding (I domain of α11β1): Yes
B2: 10-L15: mouse anti-α11β1 mAb; VH SEQ ID NO: 119, VL SEQ ID NO: 120 (antibody, V domains shown)
VH: QVQLQQSGPELVRPGASVKMSCKASGYTFTSYWMHWVKQRPGQGLEWIGMIDPSNSETWLNQKFKDKATLNVDKSSNTAYMQLSSLTSEDSAVYYCARYDGYYDYWGQGTTLTVSS
VL: NIVLTQSPASLAVSLGQRATISCRASESVDSYGNSFMHWYQQKPGQPPKLLIYLASNVESGVPARFSGSGSRTDFTLTIDPVEADDAATYYCQQNNEDPWTFGGGTKLEIK
Inhibition of FMT [1]: No
Inhibition of CHO-K1 adhesion to collagen [2]: No
